According to publication PMC11257983 (2024):

B1: Flag-CNK^2–549 [Drosophila] / GST-HYP [Drosophila] (parent complex)
chain 1: AYINIAEWTPDQVTDWIKGLDESMKGYLYEFSKQEIGGRALLNIRPYELENLGMLRIGHQEIVLEAVENLRNFHYHLKNDNLQFMALHVATAAKNLHRELARNHAESTKIDTRILHDITRTIATLKPLVGSLERTPFRKQEMYREYCGNVLKCGLELATIAHRDRFALQPVPAIRQSAERLENLANFVIQDISDPMVLQPASLNLVTLKKRESELGFNIESSYNGIHRVTDIKYNSPAHNSGKIEDGDEIVQINYQTVVGWQHRTVLEHLREALPDVVLTVKKRPKHTKMFGQIYMQPYRLPSKKRNMAARWAAQMPSPRAAFLTLDTEQLATGGTGSAVPDPSKSLSSEKREVLTKANPVSSASDSDSSCSDIPTPTDPKLAAREIRLYYPKPRALLQRRNTICGCEYLSLKNSDLVVPSWHERKPGIGSPTNCDPGSPSIRDKSISFGYGLEMAARPTTCIGIAGDTSTDKARRMFHEARKLKQLTEDSQREFLVDRYKPGVSKVVRFDAKEDYVMKNEKFICNVENTILETFEPIPFADEGDEDA
chain 2: MGEETINSTQNKTRTKTTRPKAVYLWTVSDVLKWYRRHCGEYTQYEQLFAQHDITGRALLRITDSSLQRMGVTDNRDREAIWREIVKQRLKTDIMEIRDMERLNIY

Variants of: B1
Test: GST pull-down, immunoblot quantification; S2 cells; GST-HYP, V5-KSR, Myc-MEK co-expressed; anti-Flag (CNK) blot; parent: 1
Variant chain 1 AYINIAEWTPDQVTDWIKGLDESMKGYLYEFSKQEIGGRALLNIRPYELENLGMLRIGHQEIVLEAVENLRNFHYHLKNDNLQFMALHVATAAKNLHRELARNHAESTKIDTRILHDITRTIATLKPLVGSLERTPFRKQEMYREYCGNVLKCGLELATIAHRDRFALQPVPAIRQSAERLENLANFVIQDISKPMVLQPASLNLVTLKKRESELGFNIESSYNGIHRVTDIKYNSPAHNSGKIEDGDEIVQINYQTVVGWQHRTVLEHLREALPDVVLTVKKRPKHTKMFGQIYMQPYRLPSKKRNMAARWAAQMPSPRAAFLTLDTEQLATGGTGSAVPDPSKSLSSEKREVLTKANPVSSASDSDSSCSDIPTPTDPKLAAREIRLYYPKPRALLQRRNTICGCEYLSLKNSDLVVPSWHERKPGIGSPTNCDPGSPSIRDKSISFGYGLEMAARPTTCIGIAGDTSTDKARRMFHEARKLKQLTEDSQREFLVDRYKPGVSKVVRFDAKEDYVMKNEKFICNVENTILETFEPIPFADEGDEDA [chain 1 D194K] has a ratio to parent of 0.24. In the case of chain 1 AYINIAEWTPDQVTDWIKGLDESMKGYLYEFSKQEIGGRALLNIRPYELENLGMLRIGHQEIVLEAVENLRNFHYHLKNDNLQFMALHVATAAKNLHRELARNHAESTKIDTRILHDITRTIATLKPLVGSLERTPFRKQEMYREYCGNVLKCGLELATIAHRDRFALQPVPAIRQSAERLENLANFVIQDISDPMVLAPASLNLVTLKKRESELGFNIESSYNGIHRVTDIKYNSPAHNSGKIEDGDEIVQINYQTVVGWQHRTVLEHLREALPDVVLTVKKRPKHTKMFGQIYMQPYRLPSKKRNMAARWAAQMPSPRAAFLTLDTEQLATGGTGSAVPDPSKSLSSEKREVLTKANPVSSASDSDSSCSDIPTPTDPKLAAREIRLYYPKPRALLQRRNTICGCEYLSLKNSDLVVPSWHERKPGIGSPTNCDPGSPSIRDKSISFGYGLEMAARPTTCIGIAGDTSTDKARRMFHEARKLKQLTEDSQREFLVDRYKPGVSKVVRFDAKEDYVMKNEKFICNVENTILETFEPIPFADEGDEDA [chain 1 Q199A], the ratio to parent is reported as 0.87.

Variants of: B1
Test: GST pull-down, immunoblot quantification; S2 cells; only Flag-CNK2–549 and GST-HYP co-expressed; anti-Flag (CNK) blot; parent: 1
chain 1 AYINIAEWTPDQVTDWIKGLDESMKGYLYEFSKQEIGGRALLNIRPYELENLGMLRIGHQEIVLEAVENLRNFHYHLKNDNLQFMALHVATAAKNLHRELARNHAESTKIDTRILHDITRTIATLKPLVGSLERTPFRKQEMYREYCGNVLKCGLELATIAHRDRFALQPVPAIRQSAERLENLANFVIQDISKPMVLQPASLNLVTLKKRESELGFNIESSYNGIHRVTDIKYNSPAHNSGKIEDGDEIVQINYQTVVGWQHRTVLEHLREALPDVVLTVKKRPKHTKMFGQIYMQPYRLPSKKRNMAARWAAQMPSPRAAFLTLDTEQLATGGTGSAVPDPSKSLSSEKREVLTKANPVSSASDSDSSCSDIPTPTDPKLAAREIRLYYPKPRALLQRRNTICGCEYLSLKNSDLVVPSWHERKPGIGSPTNCDPGSPSIRDKSISFGYGLEMAARPTTCIGIAGDTSTDKARRMFHEARKLKQLTEDSQREFLVDRYKPGVSKVVRFDAKEDYVMKNEKFICNVENTILETFEPIPFADEGDEDA [chain 1 D194K] was tested, and the ratio to parent was 0.76. chain 1 AYINIAEWTPDQVTDWIKGLDESMKGYLYEFSKQEIGGRALLNIRPYELENLGMLRIGHQEIVLEAVENLRNFHYHLKNDNLQFMALHVATAAKNLHRELARNHAESTKIDTRILHDITRTIATLKPLVGSLERTPFRKQEMYREYCGNVLKCGLELATIAHRDRFALQPVPAIRQSAERLENLANFVIQDISDPMVLAPASLNLVTLKKRESELGFNIESSYNGIHRVTDIKYNSPAHNSGKIEDGDEIVQINYQTVVGWQHRTVLEHLREALPDVVLTVKKRPKHTKMFGQIYMQPYRLPSKKRNMAARWAAQMPSPRAAFLTLDTEQLATGGTGSAVPDPSKSLSSEKREVLTKANPVSSASDSDSSCSDIPTPTDPKLAAREIRLYYPKPRALLQRRNTICGCEYLSLKNSDLVVPSWHERKPGIGSPTNCDPGSPSIRDKSISFGYGLEMAARPTTCIGIAGDTSTDKARRMFHEARKLKQLTEDSQREFLVDRYKPGVSKVVRFDAKEDYVMKNEKFICNVENTILETFEPIPFADEGDEDA [chain 1 Q199A] showed a ratio to parent of 0.83.

Variants of: B1
Test: GST pull-down, immunoblot quantification; S2 cells; GST-HYP + RRKM (Ha-RASV12, Pyo-RAF, V5-KSR, Myc-MEK) co-expressed; anti-Flag (CNK) blot; parent: 1
chain 1 AYINIAEWTPDQVTDWIKGLDESMKGYLYEFSKQEIGGRALLNIRPYELENLGMLRIGHQEIVLEAVENLRNFHYHLKNDNLQFMALHVATAAKNLHRELARNHAESTKIDTRILHDITRTIATLKPLVGSLERTPFRKQEMYREYCGNVLKCGLELATIAHRDRFALQPVPAIRQSAERLENLANFVIQDISKPMVLQPASLNLVTLKKRESELGFNIESSYNGIHRVTDIKYNSPAHNSGKIEDGDEIVQINYQTVVGWQHRTVLEHLREALPDVVLTVKKRPKHTKMFGQIYMQPYRLPSKKRNMAARWAAQMPSPRAAFLTLDTEQLATGGTGSAVPDPSKSLSSEKREVLTKANPVSSASDSDSSCSDIPTPTDPKLAAREIRLYYPKPRALLQRRNTICGCEYLSLKNSDLVVPSWHERKPGIGSPTNCDPGSPSIRDKSISFGYGLEMAARPTTCIGIAGDTSTDKARRMFHEARKLKQLTEDSQREFLVDRYKPGVSKVVRFDAKEDYVMKNEKFICNVENTILETFEPIPFADEGDEDA [chain 1 D194K] showed a ratio to parent of 0.24. chain 1 AYINIAEWTPDQVTDWIKGLDESMKGYLYEFSKQEIGGRALLNIRPYELENLGMLRIGHQEIVLEAVENLRNFHYHLKNDNLQFMALHVATAAKNLHRELARNHAESTKIDTRILHDITRTIATLKPLVGSLERTPFRKQEMYREYCGNVLKCGLELATIAHRDRFALQPVPAIRQSAERLENLANFVIQDISDPMVLAPASLNLVTLKKRESELGFNIESSYNGIHRVTDIKYNSPAHNSGKIEDGDEIVQINYQTVVGWQHRTVLEHLREALPDVVLTVKKRPKHTKMFGQIYMQPYRLPSKKRNMAARWAAQMPSPRAAFLTLDTEQLATGGTGSAVPDPSKSLSSEKREVLTKANPVSSASDSDSSCSDIPTPTDPKLAAREIRLYYPKPRALLQRRNTICGCEYLSLKNSDLVVPSWHERKPGIGSPTNCDPGSPSIRDKSISFGYGLEMAARPTTCIGIAGDTSTDKARRMFHEARKLKQLTEDSQREFLVDRYKPGVSKVVRFDAKEDYVMKNEKFICNVENTILETFEPIPFADEGDEDA [chain 1 Q199A] showed a ratio to parent of 0.72.
